Source: the supplement of paper PMC9732359
± gives the uncertainty stated by the source.

Experiment: protein stability index of a GFP-peptide fusion (yeast GPS) (PSI 1-4); higher = more stable; sorted into four equal gates, so the index is relative within each strain
Summary of the method: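 Each library plasmid carries Cherry plus GFP with a tiled 17-residue yeast protein peptide fused downstream, and the pooled library was carried in yeast. Mid-log cultures in leucine-free medium were sorted into four equal gates by GFP/Cherry ratio. Reads from Illumina sequencing of PCR-amplified plasmids from each gate were assigned to strains by barcodes. Per peptide, the protein stability index was computed as the summed products of gate read frequency and gate number.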

Sequence	protein stability index (doa10∆)	protein stability index (pdr5∆)	protein stability index (san1∆)	protein stability index (ubr1∆)
NGNTSSKTVVTLSEPVQ [FAS1]	2.91 ± 0.072	3.14 ± 0.066	2.96 ± 0.059	2.96 ± 0.055
PEEATTIFSVMVEWLES [PRP8]	1.76 ± 0.076	1.26 ± 0.093	1.28 ± 0.14	1.77 ± 0.13
DKLKVYKQAMNETSEQL [SNF5]	3.17 ± 0.11	3.39 ± 0.15	3.13 ± 0.12	3.11 ± 0.11
PLRENTNVLDVKDKEED [YDL116W/NUP84]	3.07 ± 0.082	3.11 ± 0.1	3.25 ± 0.065	2.99 ± 0.11
QESSSLRLLEVTDDDRL [POP8]	2.1 ± 0.068	2.08 ± 0.078	2.5 ± 0.12	1.65 ± 0.068
IEDDGIIESHLIQLQNI [CSN9]	2.77 ± 0.1	3.17 ± 0.099	2.97 ± 0.075	2.76 ± 0.073
KLIKFETRNEDDVVVLT [FAS1]	3.32 ± 0.17	2.93 ± 0.13	3.07 ± 0.063	3.12 ± 0.16
KDGGDKPPSSAFNFSFN [YAR002W/NUP60]	3.18 ± 0.066	3.22 ± 0.054	3.17 ± 0.052	3.29 ± 0.061
SSKKSKRLDKVGKKKGG [LRP1]	2 ± 0.08	1.17 ± 0.068	1.91 ± 0.12	1.43 ± 0.057
FTKKPVTPNDKIPEREE [SIR4]	3.05 ± 0.13	2.95 ± 0.087	3.27 ± 0.13	3.1 ± 0.063
GKGHLVGRLASVVAKQL [RPL16A]	1.33 ± 0.057	1.48 ± 0.051	1.33 ± 0.099	1.32 ± 0.05
LGPLSYQNMAFITAKDK [YJR042W/NUP85]	2.43 ± 0.075	2.22 ± 0.088	2.26 ± 0.079	2.31 ± 0.058
PVLDNPFTNEAHMWPRV [POP3]	3.26 ± 0.12	2.94 ± 0.1	2.99 ± 0.11	3.27 ± 0.06
PLELSAPIGKHYVVLDT [DIS3]	2.83 ± 0.1	2.78 ± 0.14	2.63 ± 0.086	2.39 ± 0.11
FINNVLSNPSNQNICTS [GRR1]	2.42 ± 0.074	2.31 ± 0.033	2.53 ± 0.054	2.47 ± 0.037
NGDNSTTTNTDQNNATM [SNF12]	2.4 ± 0.069	2.2 ± 0.069	2.52 ± 0.097	1.99 ± 0.051
VARIPRVGGGGTGRSGQ [RPL4A]	3.46 ± 0.15	3.39 ± 0.13	3.48 ± 0.072	2.57 ± 0.086
ITHQLNNKFANKIIPNV [RPC25]	2.72 ± 0.069	3.03 ± 0.08	2.93 ± 0.053	3.01 ± 0.082
IKVDGAVGNLGNAIEVT [RPL22B]	1.74 ± 0.12	2.4 ± 0.076	1.8 ± 0.14	1.58 ± 0.047
RISEKSVRKFLEIALFK [RPO31]	1.93 ± 0.14	1.15 ± 0.13		
MVRLKSRYILFEIIFPP [POP5]	1.47 ± 0.067	1.42 ± 0.054	1.52 ± 0.084	1.5 ± 0.047
ELNQDRLGGDDLRIRIK [SNF5]	3.31 ± 0.11	3.36 ± 0.19	3.21 ± 0.12	2.91 ± 0.15
LLNDECTESTRENALYD [SNF2]	3.39 ± 0.2	3.07 ± 0.15	3.31 ± 0.071	3.69 ± 0.15
REGSSARTIKATLPYIK [RPB2]	2.42 ± 0.067	3.17 ± 0.077	2.85 ± 0.061	2.69 ± 0.059
QEGMNECPGHFGHIDLA [RPO21]	3.27 ± 0.21	3.25 ± 0.098	3.33 ± 0.074	3.29 ± 0.09
PNFLIMQGKITKVLNMK [SMC2]	2.73 ± 0.1	2.86 ± 0.07	2.85 ± 0.055	2.88 ± 0.063

Sequence	protein stability index (doa10∆)	protein stability index (pdr5∆)	protein stability index (san1∆)	protein stability index (ubr1∆)
DSDELGGESMEGPKKCI [SNM1]	3.38 ± 0.086	3.51 ± 0.086	3.39 ± 0.076	3.4 ± 0.071
CESCSTILCTPTGGKAK [RPS27A]	1.93 ± 0.046	2.32 ± 0.046	2.1 ± 0.055	2.18 ± 0.037
DDEHNPTIVGGLYYQRP [AAR2]	2.66 ± 0.053	2.56 ± 0.039	2.62 ± 0.036	2.96 ± 0.04
PIGRHEELLAQYESQAP [SWP82]	2.35 ± 0.057	2.25 ± 0.063	2.07 ± 0.1	2.07 ± 0.037
DDVISNAGTNDNSFNEL [MCD1]	3.31 ± 0.15	3.37 ± 0.12	3.31 ± 0.06	3.44 ± 0.084
LSTLRMEADPSLHPLFE [RPN9]	2.54 ± 0.057	2.33 ± 0.042	2.18 ± 0.096	2.41 ± 0.044
TLENTLKAAFVAIGNTY [RPS2]	1.86 ± 0.16	1.9 ± 0.11	1.72 ± 0.14	1.94 ± 0.091
NSLLTIVWRFISENTFP [RPC34]	1.82 ± 0.059	2.05 ± 0.042	2.08 ± 0.076	2.31 ± 0.045
ETLVLDEADKMIDLGFE [PRP28]	3.18 ± 0.094	3.22 ± 0.12	3.31 ± 0.088	3.08 ± 0.056
LSFIQVRIDLGTIDKLQ [RPO31]	1.37 ± 0.056	1.71 ± 0.056	2.06 ± 0.077	2.67 ± 0.047
VLEYLAAEILELAGNAA [HTA1]	2.85 ± 0.1	2.44 ± 0.1	2.54 ± 0.081	2.84 ± 0.1
NVSLIKIEGVATPQEAQ [RPL33B]	2.76 ± 0.07	2.78 ± 0.096	2.92 ± 0.074	2.61 ± 0.055
SLSVVAGKWSSKYLIKQ [ECM29]		2.19 ± 0.18	2.15 ± 0.17	2.39 ± 0.095
SELAGDEELEAEQIDVF [PRP8]	3.08 ± 0.2	3.19 ± 0.2	3.07 ± 0.16	2.75 ± 0.18
NYLRQQCNYSSLVFNRK [PRE5]	2.71 ± 0.17	2.94 ± 0.11		2.75 ± 0.088
VVDPKTSIEKSSEILSY [YML103C/NUP188]	1.49 ± 0.087	1.43 ± 0.13	1.16 ± 0.12	1.12 ± 0.063
KKAAEEAGVTDVKVSIS [FAS2]	1.44 ± 0.09	1.66 ± 0.08	2.23 ± 0.24	1.18 ± 0.1
SKSENPVLSTIAFLVGL [SWI3]	3.01 ± 0.11	2.54 ± 0.085	2.26 ± 0.1	2.43 ± 0.057
DSENFSFEKLYEGMKLG [YMR129W/POM152]	3.5 ± 0.11	3.48 ± 0.15	3.42 ± 0.098	3.29 ± 0.074
SIGRTAQGKEFGVTKAR [RPL17A]	3.28 ± 0.14	3.44 ± 0.12	3.05 ± 0.096	
SKQLSLEEKKKRPNNKT [IRR1]	2.5 ± 0.11	2.59 ± 0.094	2.21 ± 0.15	2.79 ± 0.096
RLEFDQDRDRFFLRDTL [SNF5]	3.07 ± 0.061	3.38 ± 0.065	3.06 ± 0.048	3.4 ± 0.061
LTFQPQQQTNALNGIDI [GRR1]	2.84 ± 0.067	3.07 ± 0.075	3.02 ± 0.082	3.1 ± 0.056
KRKEELVSTLTTGISST [SMC2]	2.3 ± 0.061	2.07 ± 0.052	2.61 ± 0.086	2.11 ± 0.045
IEKLTDGHLRAPLKHGV [BRR2]	1.72 ± 0.053	2.86 ± 0.058	3.01 ± 0.051	2.04 ± 0.065
NEDMVRRANFYKENEAM [SNF12]	3.33 ± 0.11	3.48 ± 0.087	3.39 ± 0.057	3.48 ± 0.1
